# Experimental data published in KR20160085666A (dated 2016).
# B1: 항 c-Met 항체 (L3-1Y/IgG2), GSKO301 세포 생산 (antibody, V domains shown)
# VH: EVQLVESGGGLVQPGGSLRLSCAASGFTFTDYYMSWVRQAPGKGLEWLGFIRNKANGYTTEYSASVKGRFTISRDNSKNTLYLQMNSLRAEDTAVYYCARDNWFAYWGQGTLVTVSS
# VL: DIQMTQSPSSLSASVGDRVTITCKSSQSLLASGNQNNYLAWYQQKPGKAPKMLIIWASTRVSGVPSRFSGSGSGTDFTLTISSLQPEDFATYYCQQSYSRPYTFGQGTKVEIKR
# notes: Produced in GS-KO CHO cells that express the antibody only (GSKO301); also called STD (12A37); GSKO301 생산 항체
# B2: 항 c-Met 항체 (L3-1Y/IgG2), GSKO301 GOT1 세포 생산 (antibody, V domains shown)
# VH: B1 VH
# VL: B1 VL
# notes: Produced in GS-KO CHO cells that express the antibody and overexpress GOT1 (GSKO301 GOT1); also called GSKO301 GOT1 생산 항체; anti-c-Met antibody L3-1Y/IgG2
# Target: T1, c-Met-Fc (#358-MT/CF, R&D Systems) (UniProt P08581 25-932)
# T1 construct: Bought reagent; also called 항원(c-Met); not shown: Fc part of the bought fusion
# Experiment: SPR, Biacore T100; antibody captured on human Fab binder on a CM5 chip, c-Met-Fc injected at various concentrations
# T1 sequence (P08581 25-932 limits assumed): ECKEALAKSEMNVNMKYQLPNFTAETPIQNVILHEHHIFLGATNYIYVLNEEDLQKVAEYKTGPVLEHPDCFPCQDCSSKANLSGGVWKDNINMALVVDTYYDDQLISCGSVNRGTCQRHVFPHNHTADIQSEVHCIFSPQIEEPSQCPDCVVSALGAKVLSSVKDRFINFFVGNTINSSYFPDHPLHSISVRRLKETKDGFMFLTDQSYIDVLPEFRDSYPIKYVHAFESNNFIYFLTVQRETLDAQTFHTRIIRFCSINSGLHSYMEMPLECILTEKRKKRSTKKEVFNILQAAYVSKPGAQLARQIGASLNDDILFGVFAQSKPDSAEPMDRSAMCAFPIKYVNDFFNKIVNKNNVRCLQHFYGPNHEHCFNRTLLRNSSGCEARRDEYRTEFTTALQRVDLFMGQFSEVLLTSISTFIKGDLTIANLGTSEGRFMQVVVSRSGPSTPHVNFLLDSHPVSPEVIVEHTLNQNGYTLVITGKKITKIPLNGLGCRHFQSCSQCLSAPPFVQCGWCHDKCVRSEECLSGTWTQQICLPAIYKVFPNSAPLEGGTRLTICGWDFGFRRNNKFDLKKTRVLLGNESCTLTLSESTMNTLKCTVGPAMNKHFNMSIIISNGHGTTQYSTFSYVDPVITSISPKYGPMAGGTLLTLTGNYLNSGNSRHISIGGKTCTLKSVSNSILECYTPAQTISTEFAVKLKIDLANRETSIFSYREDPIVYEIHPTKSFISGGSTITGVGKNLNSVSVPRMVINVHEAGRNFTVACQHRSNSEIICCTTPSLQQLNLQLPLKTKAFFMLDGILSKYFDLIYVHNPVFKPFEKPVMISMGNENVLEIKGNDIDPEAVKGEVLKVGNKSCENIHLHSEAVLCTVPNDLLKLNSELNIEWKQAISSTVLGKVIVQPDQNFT
row,Binder,Kd [nM]
1,B1,0.057
2,B2,0.076
